Our source for the IC50 values is US20210206804A1.

Primed or numbered codes have the meaning given here. The star is where a group is joined. (^19F)FBA = O=C(c1ccc([19F])cc1)*; PEG11′ = not defined here

Sequences and labels used below:
T1: αvβ6 integrin (purified, captured on the ELISA plate), P06756
T1 chain 1: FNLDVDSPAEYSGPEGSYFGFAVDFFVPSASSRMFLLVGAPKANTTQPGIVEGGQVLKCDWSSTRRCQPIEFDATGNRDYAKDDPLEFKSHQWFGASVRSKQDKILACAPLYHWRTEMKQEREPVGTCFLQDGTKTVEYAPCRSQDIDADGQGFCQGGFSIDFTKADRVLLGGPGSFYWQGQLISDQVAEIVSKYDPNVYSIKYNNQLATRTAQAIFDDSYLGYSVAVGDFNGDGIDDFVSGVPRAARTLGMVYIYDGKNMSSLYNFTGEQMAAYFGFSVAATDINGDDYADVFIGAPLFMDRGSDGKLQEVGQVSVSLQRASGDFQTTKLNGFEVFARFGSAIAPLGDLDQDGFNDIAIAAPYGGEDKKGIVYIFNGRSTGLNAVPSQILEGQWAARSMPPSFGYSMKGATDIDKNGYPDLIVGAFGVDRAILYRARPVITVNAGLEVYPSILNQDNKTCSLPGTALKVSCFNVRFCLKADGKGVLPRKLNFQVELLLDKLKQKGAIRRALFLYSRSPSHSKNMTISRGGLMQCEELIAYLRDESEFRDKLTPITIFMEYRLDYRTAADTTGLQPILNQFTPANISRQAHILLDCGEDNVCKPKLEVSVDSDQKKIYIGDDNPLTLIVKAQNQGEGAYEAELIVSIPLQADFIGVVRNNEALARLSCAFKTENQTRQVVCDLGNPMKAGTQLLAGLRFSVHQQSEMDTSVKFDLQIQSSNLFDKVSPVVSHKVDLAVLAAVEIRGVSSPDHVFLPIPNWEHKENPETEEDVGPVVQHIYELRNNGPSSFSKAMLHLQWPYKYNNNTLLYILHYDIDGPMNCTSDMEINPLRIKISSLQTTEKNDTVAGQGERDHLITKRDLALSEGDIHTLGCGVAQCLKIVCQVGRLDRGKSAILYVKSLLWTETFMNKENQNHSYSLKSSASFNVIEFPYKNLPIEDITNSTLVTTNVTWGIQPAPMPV
T1 chain 2: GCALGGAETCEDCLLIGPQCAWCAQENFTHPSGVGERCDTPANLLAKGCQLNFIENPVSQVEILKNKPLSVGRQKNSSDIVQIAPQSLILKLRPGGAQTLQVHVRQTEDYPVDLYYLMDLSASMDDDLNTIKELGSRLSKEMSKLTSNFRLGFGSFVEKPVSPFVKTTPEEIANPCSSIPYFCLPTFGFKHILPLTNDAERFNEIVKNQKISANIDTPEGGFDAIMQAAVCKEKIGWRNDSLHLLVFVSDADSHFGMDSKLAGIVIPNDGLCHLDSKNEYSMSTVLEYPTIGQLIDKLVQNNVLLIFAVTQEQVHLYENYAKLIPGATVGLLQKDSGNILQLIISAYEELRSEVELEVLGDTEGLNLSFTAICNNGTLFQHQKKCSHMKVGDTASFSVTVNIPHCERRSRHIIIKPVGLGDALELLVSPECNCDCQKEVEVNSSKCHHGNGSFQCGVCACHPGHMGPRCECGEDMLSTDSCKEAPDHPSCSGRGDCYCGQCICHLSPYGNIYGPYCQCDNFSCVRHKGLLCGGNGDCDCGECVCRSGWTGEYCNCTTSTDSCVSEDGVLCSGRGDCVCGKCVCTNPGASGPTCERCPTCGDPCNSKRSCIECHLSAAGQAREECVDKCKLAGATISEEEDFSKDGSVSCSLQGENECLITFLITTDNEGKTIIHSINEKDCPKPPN

For this assay, the target named is T1, αvβ6 integrin (purified, captured on …). As to the kind of experiment: competitive ELISA; captured αvβ6; competitor biotinylated fibronectin.
The molecule {(^19F)FBA-PEG11′}-RSDLTPLF-{PEG11′-NH2} [[^19F]FBA-PEG11-RSDLTPLF-PEG11-NH2] displayed an IC50 of 25 nM.

{(^19F)FBA-PEG11′}-RSDLTPLF-NH2 [[^19F]FBA-PEG11-RSDLTPLF-NH2] returned an IC50 of 40 nM.

{(^19F)FBA}-RSDLTPLF-NH2 [[^19F]FBA-RSDLTPLF-NH2] registered an IC50 of 7 nM.

H-RSDLTPLFK((^19F)FBA)-NH2 [H-…([^19F]FBA)-NH2] returned an IC50 of 34 nM.

As to {(^19F)FBA}-RSDLTPLF-{PEG11′-NH2} [[^19F]FBA-RSDLTPLF-PEG11-NH2], the IC50 came to 40 nM.
